Source: patent US6376240, “RFLAT-1: a transcription factor that activates RANTES gene expression” (Board of Trustees of the Leland Stanford Junior Unversity)

B1: kB probe (dsDNA)
DNA 1: AATTCGTCAGAGGGGACTTTCCGAGAG
DNA 2: CTCTCGGAAAGTCCCCTCTGACGAATT
B2: A probe (dsDNA)
DNA 1: AATTCGTTGCTATTTTGGAAACTCCCCTTG
DNA 2: CAAGGGGAGTTTCCAAAATAGCAACGAATT
B3: A/B probe (dsDNA)
DNA 1: AATTCGCTATTTTGGAAACTCCCCTTAGGGGATGCCCCTCAACTGCG
DNA 2: CGCAGTTGAGGGGCATCCCCTAAGGGGAGTTTCCAAAATAGCGAATT
B4: B probe (dsDNA)
DNA 1: AATTCGCTAGGGGATGCCCCTCAACTGCG
DNA 2: CGCAGTTGAGGGGCATCCCCTAGCGAATT
B5: C probe (dsDNA)
DNA 1: AATTCTCTAGATGAGAGAGCAGTGAGGGAGAGACG
DNA 2: CGTCTCTCCCTCACTGCTCTCTCATCTAGAGAATT
B6: E probe (dsDNA)
DNA 1: AATTCTTTGTGCAATTTCACTTATGATACCG
DNA 2: CGGTATCATAAGTGAAATTGCACAAAGAATT

Legend:
[1] = biological target: T1, RFLAT-1 C-terminal portion (aa 59-288) (homo sapien, UniProt Q9Y2Y9 SEQ:59-288); assay: EMSA; conditions: tags: His6 (pET-28a); label: 32P
Method: (§1) The wells were incubated in blocking buffer (5% goat serum, 5% horse serum, 0.1% Triton X-100 in PBS), washed in PBS supplemented with 0.1% Triton X-100, and incubated with antigen purified rabbit polyclonal anti-RFLAT-1 (1:500 [v/v]) or rabbit IgG (1:500 [v/v]) (Santa Cruz Biotechnology, Santa Cruz, Calif.). The wells were washed, incubated with goat anti-rabbit FITC (1:2000 [v/v]) (Caltag, Burlingame, Calif.), and anti-FITC Alexa™ 488 (1:2000 [v/v]) (Molecular Probes, Eugene, Oreg.). Finally, the slide was washed with PBS, covered with mounting media (1:3 [v/v], Vectashield with propidium iodide) (Vector, Burlingame, Calif.), cover slipped and sealed. EMSA and supershift assays were performed essentially as described by Ortiz et al., 1996, supra. Oligonucleotides were synthesized by Life Technologies, Inc. (Gaithersburg, Md.) and purified by a polyacrylamide-urea gel. Oligonucleotides were end-labeled using [γ-^32P] ATP and T4 polynucleotide kinase. The following oligonucleotides were used:
(§2) A carboxyl terminal portion of RFLAT-1, including the zinc finger DNA binding domain (nucleotides 550–1430), was isolated through expression cloning using an oligonucleotide probe containing three tandem A sites of the RANTES promoter.

[2] = biological target: T1, RFLAT-1 C-terminal portion (aa 59-288); assay: EMSA; two retarded bands, possible oligomerization; conditions: tags: His6 (pET-28a); label: 32P
Method: as §1, §2

T1 sequence (Q9Y2Y9 other isoform, or with tags, fused parts or gaps): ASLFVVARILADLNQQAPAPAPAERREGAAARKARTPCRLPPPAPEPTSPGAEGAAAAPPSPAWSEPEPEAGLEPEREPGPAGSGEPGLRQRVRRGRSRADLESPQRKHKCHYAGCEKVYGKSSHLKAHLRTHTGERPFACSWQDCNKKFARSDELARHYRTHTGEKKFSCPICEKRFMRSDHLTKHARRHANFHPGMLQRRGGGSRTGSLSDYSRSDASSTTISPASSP

| Binder | binding result [1] | binding result [2] |
| --- | --- | --- |
| B1 | no binding | – |
| B2 | binds | – |
| B3 | – | binds |
| B4 | no binding | – |
| B5 | no binding | – |
| B6 | no binding | – |
